Source: PMC8727753, “Engineering of Reductive Aminases for Asymmetric Synthesis of Enantiopure Rasagiline” (Frontiers in Bioengineering and Biotechnology, 2021)

B1: AcRedAm (Aspergillus calidoustus) (protein)
chain: MSTITLFGLGAMGKALAAKYIEKGYTTTIWNRTPSKAAPLVEKGAKLANTVGEGLASADLIILCLLDNASVRQTLDQATAALNGKTVINLTNGTPSQARETSEWVISHGAQYIHGGIMAVPDMIGSPHAVLLYSGESAETFSRVEAHLSHLGTSKFLGTDPGSASLHDLALLSGMYGLFSGFFHATALVKSQPGTTATGFVQLLTPWLSAMTHYLGALAKQIDEGDYATQGSNMAMQVTGVQNIVRASEEAGVTADLIMPILGRMTRAAEAGYADVDVSAVIEFMKE
notes: dimer in homology model

How the values were obtained:
[1] = system: T1, O=C1CCc2ccccc21; assay: purified protein; type: biochemical, Aspergillus calidoustus; conditions: 20 mM propargylamine, 0.2 mM NADPH, 1% DMSO, 100 mM Tris-HCl pH 9.0
T1 construct: dimer in homology model

[2] = substrate: O=C1CCc2ccccc21; assay: purified protein; type: biochemical, Aspergillus calidoustus; conditions: 20 mM propargylamine, 0.2 mM NADPH, 1% DMSO, 100 mM Tris-HCl pH 9.0

| Molecule | Km [1] [µM] | kcat [1] [s⁻¹] | kcat/Km [1] [M⁻¹ s⁻¹] | Km [2] [µM] | kcat [2] [s⁻¹] | kcat/Km [2] [M⁻¹ s⁻¹] |
| --- | --- | --- | --- | --- | --- | --- |
| AcRedAm (Aspergillus calidoustus; Q237A) | 9 ± 1 | 0.007 ± 0.001 | 778 ± 21 | – | – | – |
| AcRedAm (Aspergillus calidoustus; Q237G) | 4 ± 1 | 0.002 ± 0.001 | 500 ± 30 | – | – | – |
| AcRedAm (Aspergillus calidoustus; W207C) | 18 ± 2 | 0.022 ± 0.001 | 1220 ± 44 | – | – | – |
| AcRedAm (Aspergillus calidoustus; W207S/Y214C) | 21 ± 4 | 0.026 ± 0.002 | 1240 ± 26 | – | – | – |
| AcRedAm (Aspergillus calidoustus; Y214M) | 12 ± 4 | 0.014 ± 0.002 | 1170 ± 21 | – | – | – |
| B1 | – | – | – | 16 ± 4 | 0.017 ± 0.001 | 1060 ± 41 |
